Laboratory results as given in the DeepSol protein solubility set.

Assay: soluble on expression in E. coli; label from the status in PepcDB or PDB records
In the case of “MDLVDPLAEPCAVCGDKSTGTHYGVISCNGCKGFFRRTVLRDQKFTCRFNKRCVIDKNFRCACRYCRFQKCVQVGMKREAIQFERDPVGSPTSGASLNGTPFKKDRSPGYENGNSNGVGSNGMGQENMRTVPQSSSVIDALMEMEARVNQEMCNRYRRSQIFANGSGGSNGNDTDIQQGSDSGASAFAPPNRPCTTEVDLNEISRTTLLLMVEWAKTINPFMDLSMEDKIILLKNYAPQHLILMPAFRSPDTTRVCLFNNTYMTRDNNTDLNGFAAFKTSNITPRVLDEIVWPMRQLQMREQEFVCLKALAFLHPEAKGLSNSSQIMIRDARNRVLKALYAFILDQMPDDAPTRYGNILLLAPALKALTQLLIENMTLTKFFGLAEVDSLLSEFILDDINDHSTAPVSLQQHLSSPTTLPTNGVSPLNPAGSVGSVSSVSGITPTGMLSATLAAPLAIHPLQSQDSILNSEQNNHML”, the “soluble on expression in E. coli” value is reported as “soluble”. With “MDLYAVWGNPIAQSKSPLIQNKLAAQTHQTMEYIAKLGDLDAFEQQLLAFFEEGAKGCNITSPFKERAYQLADEYSQRAKLAEACNTLKKLDDGKLYADNTDGIGLVTDLQRLNWLRPNQHVLILGAGGATKGVLLPLLQAQQNIVLANRTFSKTKELAERFQPYGNIQAVSMDSIPLQTYDLVINATSAGLSGGTASVDAEILKLGSAFYDMQYAKGTDTPFIALCKSLGLTNVSDGFGMLVAQAAHSFHLWRGVMPDFVSVYEQLKKAMLLEHHHHHH” the “soluble on expression in E. coli” value was “soluble”. For “MDMMMDKQEIKREYIEQEGHFETKSRRRELHIEILSEQTKSDIRNSKLVVMN”, the “soluble on expression in E. coli” value was “soluble”. In the case of “MDMNFFKHDAFSATTMMKAIENYEFQPGLISSLNLFEEVETSTTVVGIERRDNTLSLIQTSERGAPLVEGDRDGRNLRFFKTTRIAKSDTVKSEEIQNRREFGTEDQLETAMKYIARKQKKLISEIELTWENMQLGAVQGVVLDADGSVIVDWYKEWEIAPPKPIDFKLNNETTNVADHVDQVIMKMIEASKGAFSDRSRIIGLCGNEFFSKLKNHKTIRETYLNTALAQTLNSAGGVATPSAIGSGSFGSFDFAGVTFINYRSIHNYNVSAKAGTKRAIGIKPDECQFLPANAPGVFQKTFAPGESLDFANTVGKPLYTMLIVDNDRNAWVKPEVYSYPLYICTRPEMLFKAVSGGK”, the “soluble on expression in E. coli” value is reported as “not soluble”. In the case of “MDNEKLIREARRMEDVQQLKMQIPKPVDKKPRPPPSENNLKLISCEETCMDETLKNSSKPRMIYNKQLGRAESIDFDVPSLSYESSTFKKSNNSSGGALVLDNHYLINNDDGTVKKLPMKVYVKQRLEDGSLDVQLVFFDENSQKVMDISMLVNGKKIRNVQFCGKDGKLVN”, the “soluble on expression in E. coli” value is reported as “not soluble”. With “MDNHAEAHWQNGWLQSIRHTPSPNFSPRETGETVSLIVLHNISLPPFEYGTDAVEKLFANRLDPDGHPFFSLIHTLRVSSHFLIKRDGETVQFVSCDNMAYHAGVSSFGGREKCNAFSIGIELEGCDFEPFAEAQYRSLEALLDAICRHYPVTAVTGHQDIAPGRKTDPGHFFDWRRIREKGFLVDRNAV” the “soluble on expression in E. coli” value was “not soluble”. With “MDNVVDRHVFYISDGTAITAEVLGHAVMSQFPVTISSITLPFVENESRARAVKDQIDAIYQQTGVRPLVFYSIVLPEIRAIILQSEGFCQDIVQALVAPLQQEMKLDPTPIAHRTHGLNPGNLNKYDARIAAIDYTLAHDDGISLRNLDQAQVILLGVSRCGKTPTSLYLAMQFGIRAANYPFIADDMDNLTLPTSLKPLQHKLFGLTIDPERLAAIREERRENSRYASLRQCRMEVAEVEALYRKNQIPCLNSTNYSVEEIATKILDIMGLNRRMYLEHHHHHH” the “soluble on expression in E. coli” value was “soluble”. For “MDNYEKVRVVGRGAFGVCWLCRGKNDASHQKVIIKLINTHGMTEKEENSIQSEVNLLKKVQHPLIIGYIDSFIMDNQLGIVMQYAEGGTLERLINDQRAIKDSNMREYFPEKTVLDYFTQILIALNHMHQKNIVHRDLKPQNILMNRRKTVLKLSDFGISKELGTKSAASTVIGTPNYLSPEICESRPYNQKSDMWSLGCVLYELLQLERAFDGENLPAIVMKITRSKQNPLGDHVSNDVKMLVENLLKTHTDKRPDVSQLLSDPLVLPYLISIHCDLGRIEPPPTDKRKPSASLSSRLRTYPTQSTLRPYSLSSNAPTTHLTQLTPMPSHIDSGFFSSGRTSNQRTQSRSQVHSKY”, the “soluble on expression in E. coli” value was “soluble”. For “MDPACASVDNSKSDPLTDSYPQKYRYSFHRNCQRIMLGVNLKRKNSHYTKGATMTATHNHYLAVLGEDFVAQQYANEGYDITARNVSFSVGEIDIIATSPQGEVVFIEVKTRSSSLMDAAEAVTPTKMRKIHRAASKWLQGKPFADIRFDVVAVHVDEYGELDMTRYQGVEHGAC”, the “soluble on expression in E. coli” value was “not soluble”. For “MDPAKVNTVDEDIKFKEVPGITNILLLSSDARPGEDVSRSDSIMILTIDNINKKLKVTSLMRDMLVKIDGHGEEKLNHAFAYGGPTKTIETIQNNFGIKLNNYVIVDFNAFVKVIDAINGIEVTVKDYELDELNKYILDGGGSEEDLLPSPGTYNLNGYQALSYARIRKVGNGEYERTERQRAVLQIALEKVKDMSTVKLVSLLNELFPYVKTNISLGNAMDYGFTALNVGKKCNFEIEQFRVPLDSISKGGIINNKGWVFVIDKVETSKALQEFIFNDNKNYEPDTSNFDSIIEQYFNDYDIKDDTTHPLEHHHHHH”, the “soluble on expression in E. coli” value was “soluble”. With “MDPEALNLEFYDKNGLDNPIHFRCDPKRIGMTLPSPDFSVDDVLELVGGNRMIEVVQVQNQGSVKMSLQEFINFYKTPQEKREVLYNVLSLEFSQTPLEDLVKSPELVRQIDWVGNQWPDALRQRWISFNGRDKKFYNPHHTFPKVQNYCLMSVANCYTDFHIDFSGTSVWYHVLKGRKVFWLIPPTETNFFIYQEFIKTVNDNAFFGKSVEKCHVAILEPGDTMLIPSGWIHAVYTPDDSLVFGGNFLHSQSCKTQLRVYQVENKLNITRKFRLPYNEELIFYVIADYVKQWTGREYVRPLRIEDAKYDYVGDKWKTAGGHHKKIEYSDYETGVELTNDMIKGDEESTKDEVKVIAMHAENSLFGYPMVSKATFSADTGLEEEADEDEVKYQETKEEMDARRDAEIDELANSNSLIFYKNRTHDFVRNKCVPDHKLPIGHEPPIYFNDDEISRISPRLLDELETLGTYIRRKARVEVAEGICQPASLINTFQTVLKKRRSELTGKKFEFNQIMPRRYTRSTMETGEYDFQPTQEVPQESARRSTRFKVDNFPDELLESEVTDKPIILPQQPSSGPLEYLPAPKDEIKEDINGFEEEFEEEYEGIGQRDDQEEEEYDAEEPEDQEEEEEDEYQAEEYTPTPVTRRSSSRRSGAKNDESEEVSVKKDKKEKMEKVEKDEKRRNSKSKKDKISKEKKKKERERIELESQLDAELRAAHGGGSSKSKKKKPEKPAFVGGLPTSSIQIDPVVSNPYNYDPRMEMMKLGTGQLKSAYRKTKNNVELHIEKNLYKIEPKRGSEEGSQSREQSMEPEHSTPVFTTFDDINEANNDHYDGQKPPTKRAKYEAISVDTYETPSSSRNKEHKEYRPSPNAAPTPSPSHHQKPKLSSPAMVSSTNEYQLRKHMSSERRSSDAGSAMKKGVYMPAMSRQDKMIAEGASAPSSRHSSISSERRPSFIPDFNSSRNSSIDTPYTPTTVTPSRSSWLPNTSSINRHSIEDDSPIDVVNDSLSPINIASSPTYPTAITPPPVTLSDLKKDMSNGRKSHSQHHDDGHKHKIPSKEAIAELKLLVGKLKAINDS” the “soluble on expression in E. coli” value was “not soluble”. In the case of “MDPLDRLIQLANLQGRLDQRCQLQGSWALEHPQAVPGEATFHIVMAGTCYCEFLDGGRLDLHPGDLILLPRGTPHLLRSDSPAQPCEPTVEHRGSIPLYQLNGPGEALDMLCGSYRYHAGASLFGALPERLLVHMDESTQQPLRALIGLMREEAESTRSGARSIIDALATALFALALRAYLDRQPLGDGLFGLLGDARLGRALRAMLERPEHAWTLEQLAQQAAMSRASFVRAFSALGGTSPWNLLTRIRMEKARGLLRQTQKSLLDIAAETGYQSEAAFSRNFRQAFGESPGRFRRQADSAR”, the “soluble on expression in E. coli” value is reported as “not soluble”. In the case of “MDQFVNHLSCTALLVGKKASVDGSTMIARNEDASGGINPKRFIVVQPADQPQRYVSTFNGFQLDLPQTPLQYTCTPVADQSHGTWGEAGINSENVAMSATETEFTNTTMLGLDPLEPDGIGEEAMLTVVLPYIHNAREGVERLGELVTKYGTCESNGIAFSDANEIWYFETVGGHHWAAERIPDDRYVLAPNQTGIQEIDFQAPEHYKYSADLKDFAAKYHLNKAKEGFNFRDIFGEDTQADHYYNTPRVWYAQKMLNPEIDQDPESRTMPFSRVPSHLISVEDVAMVLSSHYQATDFDPYGQTGTPETRRRYRPIGMNRNQEMHILQIRPNMPKSHAAIHWLAEGVNIFNSPVPFFANCTTTPENFQYTPIDKSSTDSFYWLNKLIAMVADPLFAEHDWDAEFAVSESRKFGFAAGRAAVAKGDAAFADVKPEDLPAWHDALNAETAATITNDLQYLLHQLVCIRAEKMTPSFEKGGELLEHHHHHH”, the “soluble on expression in E. coli” value is reported as “not soluble”. In the case of “MDQLREIVDPDQPQTLRQQAEGWGKMAELLREYSLLLDERLRLVEHSWTGEAATMYFDEVRRVQEYIEDSAERATANCGLWCVIATMAGIAKHDVSHIHQLWKDLDAATDAVGLGFVAGVFGADEALEDFQRKPFDAASRQIMEVTMSAADESYARMRDFEEFEPPPSVDDSGLELQSVSTPAPPSGTAVAPPSTTVTATPAVPLGPTAPRPVVPSVIGSRPGMMPMARPMMGPGHTVPPVIGQRDGGSAQPGATGRLIGRDGVVRVTPDVDLRDPNASRAHYGGDDVNRGVIKSQNPQRVADEAQFKLEEEVRRLRERAYAHRVETLTADHSQYAIPGIVGDDSAWDTKAHDPGPVAFDVRRLRHRPVVDDWTLAVRRH”, the “soluble on expression in E. coli” value is reported as “not soluble”. In the case of “MDQTVLDSAFNSPVDSGIAGTTTGSGSTTHFGVGTNFKVSVRSSSRSTDGTDSTDGANSDNVTGSTGSTPAHHSITNLNMALSQHSIDSATAASSTNPFPHFNQADLLNFHQNSLLPHHMFSQFGRYPQFEQKPDVGVLQQQMQMREAKPYKCTQCVKAFANSSYLSQHMRIHLGIKPFGPCNYCGKKFTQLSHLQQHIRTHTGEKPYKCKFTGCDKAFSQLSNLQSHSRCHQTDKPFKCNSCYKCFTDEQSLLDHIPKHKESKHLKIHICPFCGKSYTQQTYLQKHMTKHADRSKASNFGNDVVPADPFDPSLLSWNPMQGMGDNAHDSSSFNISSLTDQFAANTMIGSQSTNYNPAFQNSAFSQLFNIRNNRYLSEYPTSTKNGERAPGFNMITPLENIQRYNGSSSSATAVVTATGSAVVSSTPSSTSSSSAGSSSSQGGVFNPQSLINNMKNHSY”, the “soluble on expression in E. coli” value is reported as “not soluble”. For “MDRISGLPDEVLVKILSFVPTKVAVSTSILSKRWEFLWMWLTKLKFGSKRYSESEFKRLQCFLDRNLPLHRAPVIESFRLVLSDSHFKPEDIRMWVVVAVSRYIRELKIYSSHYGEKQNILPSSLYTCKSLVILKLDGGVLLDVPRMVCLPSLKTLELKGVRYFKQGSLQRLLCNCPVLEDLVVNLSHHDNMGKLTVIVPSLQRLSLSTPSSREFVIDTPSLLSFQLVDRNDNSHTFLIENMPKLREAYINVPFADIKSLIGSITSVKRLAISSEVGYGEGFIFNHLEELTLWNKYSSNLLVWFLKNSPNLRELMLVSETDVSFFH”, the “soluble on expression in E. coli” value was “soluble”. With “MDRLKAMQVFVEVADRGSLSAAAMHLGMSRAMVSRYLAELEAWVGVRLLHRTTRRLSLTPAGSETLPRCRRMLEMVGDMREAVAAPDAEPRGLLRVTAAMSFGGAQLAEAVAEFVRRHPAASIDLLLVDRAVNLVEERVDLAVRITNDLDPNLIGRRLADCRSVVCAAPQYLQQHGAPARAEDLSLHNCLTHSYFGRSLWRFERAGEPVEVPVGGNITANETDVLMRAALAGAGIVMLPTYLAAGQIAAGTLRPLLPDCAPPVLGIHGVYVSRKQMPLILRTMLDFLAERFNPAPWDAALEGR” the “soluble on expression in E. coli” value was “not soluble”.
